From patent publication WO2021110095A1 (dated 2021)

Biological target: human GPC3 full-length protein on cells (CHO-K1-hGPC3; cells expressing GPC3) (human, UniProt P51654 25-580)
Test: cell-based or functional assay

Sequence of human GPC3 full-length protein on cells (CHO-K1-hGPC3; cells expressing GPC3) (P51654 25-580, form in doubt): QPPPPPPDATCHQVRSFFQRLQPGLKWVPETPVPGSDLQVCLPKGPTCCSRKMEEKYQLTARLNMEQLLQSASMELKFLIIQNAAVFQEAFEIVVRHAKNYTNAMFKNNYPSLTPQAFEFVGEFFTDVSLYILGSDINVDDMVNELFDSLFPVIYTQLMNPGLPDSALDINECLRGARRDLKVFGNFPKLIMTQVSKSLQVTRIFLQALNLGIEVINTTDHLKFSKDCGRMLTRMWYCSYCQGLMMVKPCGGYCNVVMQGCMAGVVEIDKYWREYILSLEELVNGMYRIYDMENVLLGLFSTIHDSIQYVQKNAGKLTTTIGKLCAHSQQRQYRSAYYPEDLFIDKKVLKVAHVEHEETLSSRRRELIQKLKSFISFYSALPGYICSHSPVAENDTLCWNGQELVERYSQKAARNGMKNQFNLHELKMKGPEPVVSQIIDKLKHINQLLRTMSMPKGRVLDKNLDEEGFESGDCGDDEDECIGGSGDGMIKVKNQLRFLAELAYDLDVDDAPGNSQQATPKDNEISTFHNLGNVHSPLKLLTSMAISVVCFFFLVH

- CDC, IC50: 0.308 nM
B1: humanized antibody Ab9 (antibody, human IgG1, kappa, V domains shown)
VH: QVQLVQSGAEVKKPGASVKVSCKASGYTFTDYEMHWVRQAPGQGLEWMGAIDPKTGRTAYNQKFKDRVTLTADKSTSTAYMELSSLTSEDTAVYYCTRYYSYAYWGQGTLVTVSS
VL: DVVMTQSPLSLSVTPGEPASISCRSSQSLVHSNRNTYLQWYLQKPGQPPQLLIYKVSNRFSGVPDRFSGSGSGTDFTLKISRVEAEDVGVYYCSQSIHVPYTFGQGTKLEIKR
